Measurements from patent US8426166B2, “Long-acting polypeptides and methods of producing same” (Prolor Biotech Inc., dated 2013).

Target: T1, human IFN receptor (human, UniProt P17181)
T1 sequence 1: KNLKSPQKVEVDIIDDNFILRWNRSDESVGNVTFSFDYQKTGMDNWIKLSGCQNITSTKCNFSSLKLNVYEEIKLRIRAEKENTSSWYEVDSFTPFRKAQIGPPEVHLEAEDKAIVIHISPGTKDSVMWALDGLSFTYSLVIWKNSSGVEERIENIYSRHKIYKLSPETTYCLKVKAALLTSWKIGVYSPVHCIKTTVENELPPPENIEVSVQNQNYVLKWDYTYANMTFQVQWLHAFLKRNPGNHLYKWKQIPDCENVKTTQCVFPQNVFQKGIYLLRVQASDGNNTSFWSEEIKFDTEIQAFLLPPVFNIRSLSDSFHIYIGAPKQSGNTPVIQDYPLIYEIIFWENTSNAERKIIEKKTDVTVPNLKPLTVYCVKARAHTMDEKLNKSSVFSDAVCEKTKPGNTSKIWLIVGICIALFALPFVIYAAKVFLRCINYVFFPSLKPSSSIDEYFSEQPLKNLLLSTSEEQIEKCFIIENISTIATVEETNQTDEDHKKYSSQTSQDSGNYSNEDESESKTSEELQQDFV
T1 sequence 2: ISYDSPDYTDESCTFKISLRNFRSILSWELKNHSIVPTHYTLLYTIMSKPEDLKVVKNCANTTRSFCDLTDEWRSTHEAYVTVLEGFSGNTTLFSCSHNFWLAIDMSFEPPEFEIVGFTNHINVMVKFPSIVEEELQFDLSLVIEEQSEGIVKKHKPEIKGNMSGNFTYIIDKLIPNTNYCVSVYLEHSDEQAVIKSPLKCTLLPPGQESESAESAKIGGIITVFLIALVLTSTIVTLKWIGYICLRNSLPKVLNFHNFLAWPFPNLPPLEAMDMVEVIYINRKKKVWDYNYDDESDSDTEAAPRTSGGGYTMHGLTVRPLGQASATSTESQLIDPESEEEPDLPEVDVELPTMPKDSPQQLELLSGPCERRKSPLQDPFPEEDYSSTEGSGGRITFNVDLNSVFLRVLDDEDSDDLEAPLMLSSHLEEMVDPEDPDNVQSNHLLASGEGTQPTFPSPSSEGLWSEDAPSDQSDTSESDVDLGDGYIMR
Assay: cell-based or functional assay

B1: MOD-9011 (IFNβ-ctp) (ligand)
chain: MSYNLLGFLQRSSNFQCQKLLWQLNGRLEYCLKDRMNFDIPEEIKQLQQFQKEDAALTIYEMLQNIFAIFRQDSSSTGWNETIVENLLANVYHQINHLKTVLEEKLEKEDFTRGKLMSSLHLKRYYGRILHYLKAKEYSHCAWTIVRVEILRNFYFINRLTGYLRNSSSSKAPPPSLPSPSRLPGPSDTPILPQ
With B1 the “IC50 pg/ml (anti-proliferation, Daudi cells)” value (“IC50 pg/ml” for short) was 264 pg/mL, the “Specific Activity IU/mg x 10^8, Anti-proliferation (Daudi cells, 72 hours, viable cells)” value was 2.41e+08 IU/mg and the “Specific Activity IU/mg x 10^8, Anti-viral (viral cytopathic effect bioassay, A549 cells challenged with virus)” value was 4e+08 IU/mg.

B2: Intl. Standard (IFN-β reference standard calibrated in International Units, National Institute of Allergy and Infectious Diseases (NIH)) (ligand)
chain: MSYNLLGFLQRSSNFQCQKLLWQLNGRLEYCLKDRMNFDIPEEIKQLQQFQKEDAALTIYEMLQNIFAIFRQDSSSTGWNETIVENLLANVYHQINHLKTVLEEKLEKEDFTRGKLMSSLHLKRYYGRILHYLKAKEYSHCAWTIVRVEILRNFYFINRLTGYLRN
In the case of B2, the “IC50 pg/ml” value is reported as 318 pg/mL.

B3: Human Interferon-β 1a-MOD-9010 (ligand)
chain: B2 chain
In the case of B3, the “IC50 pg/ml” value is reported as 251 pg/mL and the “Specific Activity IU/mg x 10^8, Anti-viral (viral cytopathic effect bioassay, A549 cells challenged with virus)” value is reported as 3.9e+08 IU/mg.

B4: MOD-9016 (ctp-IFNβ-ctp) (ligand)
chain: SSSSKAPPPSLPSPSRLPGPSDTPILPQMSYNLLGFLQRSSNFQCQKLLWQLNGRLEYCLKDRMNFDIPEEIKQLQQFQKEDAALTIYEMLQNIFAIFRQDSSSTGWNETIVENLLANVYHQINHLKTVLEEKLEKEDFTRGKLMSSLHLKRYYGRILHYLKAKEYSHCAWTIVRVEILRNFYFINRLTGYLRNSSSSKAPPPSLPSPSRLPGPSDTPILPQ
B4 was tested, and the “IC50 pg/ml” value was 323 pg/mL, the “Specific Activity IU/mg x 10^8, Anti-proliferation (Daudi cells, 72 hours, viable cells)” value was 1.97e+08 IU/mg and the “Specific Activity IU/mg x 10^8, Anti-viral (viral cytopathic effect bioassay, A549 cells challenged with virus)” value was 3.7e+08 IU/mg.

B5: MOD-9012 (IFNβ-ctpx2) (ligand)
chain: MSYNLLGFLQRSSNFQCQKLLWQLNGRLEYCLKDRMNFDIPEEIKQLQQFQKEDAALTIYEMLQNIFAIFRQDSSSTGWNETIVENLLANVYHQINHLKTVLEEKLEKEDFTRGKLMSSLHLKRYYGRILHYLKAKEYSHCAWTIVRVEILRNFYFINRLTGYLRNSSSSKAPPPSLPSPSRLPGPSDTPILPQSSSSKAPPPSLPSPSRLPGPSDTPILPQ
B5 was tested, and the “Specific Activity IU/mg x 10^8, Anti-viral (viral cytopathic effect bioassay, A549 cells challenged with virus)” value was 4e+08 IU/mg.
